# Laboratory results: patent US20220144956A1 (published 2022)
# B1: H1 L1.45 XENP34608 (antibody, V domains shown)
# VH: QLQVQESGPGLVKPSETLSLTCTVSGGSISNSYFSWGWIRQPPGKGLEWIGSFYYGEKTYYNPSLKSRATISIDTSKSQFSLKLSSVTAADTAVYYCPRGPTMIRGVIDSWGQGTLVTVSS
# VL: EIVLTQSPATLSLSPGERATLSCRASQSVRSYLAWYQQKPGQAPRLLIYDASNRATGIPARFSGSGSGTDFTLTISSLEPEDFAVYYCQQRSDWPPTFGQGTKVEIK
# B2: H1 L1.59 XENP34622 (antibody, V domains shown)
# VH: QLQVQESGPGLVKPSETLSLTCTVSGGSISNSYFSWGWIRQPPGKGLEWIGSFYYGEKTYYNPSLKSRATISIDTSKSQFSLKLSSVTAADTAVYYCPRGPTMIRGVIDSWGQGTLVTVSS
# VL: EIVLTQSPATLSLSPGERATLSCRASQSVRSYLAWYQQKPGQAPRLLIYDASNRATGIPARFSGSGSGTDFTLTISSLEPEDFAVYYCQQRSNWPPTFGGGTKVEIK
# B3: H1 L1.53 XENP34616 (antibody, V domains shown)
# VH: QLQVQESGPGLVKPSETLSLTCTVSGGSISNSYFSWGWIRQPPGKGLEWIGSFYYGEKTYYNPSLKSRATISIDTSKSQFSLKLSSVTAADTAVYYCPRGPTMIRGVIDSWGQGTLVTVSS
# VL: EIVLTQSPATLSLSPGERATLSCRASQSVRSYLAWYQQKPGQAPRLLIYDASNRATGIPARFSGSGSGTDFTLTISSLEPEDFAVYYCQQRSNYPPTFGQGTKVEIK
# B4: H1 L1.46 XENP34609 (antibody, V domains shown)
# VH: QLQVQESGPGLVKPSETLSLTCTVSGGSISNSYFSWGWIRQPPGKGLEWIGSFYYGEKTYYNPSLKSRATISIDTSKSQFSLKLSSVTAADTAVYYCPRGPTMIRGVIDSWGQGTLVTVSS
# VL: EIVLTQSPATLSLSPGERATLSCRASQSVRSYLAWYQQKPGQAPRLLIYDASNRATGIPARFSGSGSGTDFTLTISSLEPEDFAVYYCQQRSSWPPTFGQGTKVEIK
# B5: H1 L1.47 XENP34610 (antibody, V domains shown)
# VH: QLQVQESGPGLVKPSETLSLTCTVSGGSISNSYFSWGWIRQPPGKGLEWIGSFYYGEKTYYNPSLKSRATISIDTSKSQFSLKLSSVTAADTAVYYCPRGPTMIRGVIDSWGQGTLVTVSS
# VL: EIVLTQSPATLSLSPGERATLSCRASQSVRSYLAWYQQKPGQAPRLLIYDASNRATGIPARFSGSGSGTDFTLTISSLEPEDFAVYYCQQRSQWPPTFGQGTKVEIK
# B6: H1 L1.61 XENP34624 (antibody, V domains shown)
# VH: QLQVQESGPGLVKPSETLSLTCTVSGGSISNSYFSWGWIRQPPGKGLEWIGSFYYGEKTYYNPSLKSRATISIDTSKSQFSLKLSSVTAADTAVYYCPRGPTMIRGVIDSWGQGTLVTVSS
# VL: EIVLTQSPATLSLSPGERATLSCRASQSVRSYLAWYQQKPGQAPRLLIYDASNRATGIPARFSGSGSGTDFTLTISSLEPEDFAVYYCQQRSNWPPTFGQGTKLEIK
# B7: XENP34306 H1.1 L1 (antibody, V domains shown)
# VH: QLQVQESGPGLVKPSETLSLTCTVSGGSISNSYFSWGWIRQPPGKGLEWIGSFYYGEKTYYNPSLKSRATISIDTSKSQFSLKLSSVTAADTAVYYCPRGPTVIRGVIDSWGQGTLVTVSS
# VL: EIVLTQSPATLSLSPGERATLSCRASQSVRSYLAWYQQKPGQAPRLLIYDASNRATGIPARFSGSGSGTDFTLTISSLEPEDFAVYYCQQRSNWPPTFGQGTKVEIK
# B8: XENP35121 H1.30 L1 (antibody, V domains shown)
# VH: QLQVQESGPGLVKPSETLSLTCTVSGGSISNSYFYWGWIRQPPGKGLEWIGSFYYGEKTYYNPSLKSRATISIDTSKSQFSLKLSSVTAADTAVYYCPRGPTMIRGVIDSWGQGTLVTVSS
# VL: EIVLTQSPATLSLSPGERATLSCRASQSVRSYLAWYQQKPGQAPRLLIYDASNRATGIPARFSGSGSGTDFTLTISSLEPEDFAVYYCQQRSNWPPTFGQGTKVEIK
# B9: XENP35125 H1.51 L1 (antibody, V domains shown)
# VH: QLQVQESGPGLVKPSETLSLTCTVSGGSISNSYFSWGWIRQPPGKGLEWIGSFNYGEKTYYNPSLKSRATISIDTSKSQFSLKLSSVTAADTAVYYCPRGPTMIRGVIDSWGQGTLVTVSS
# VL: EIVLTQSPATLSLSPGERATLSCRASQSVRSYLAWYQQKPGQAPRLLIYDASNRATGIPARFSGSGSGTDFTLTISSLEPEDFAVYYCQQRSNWPPTFGQGTKVEIK
# B10: XENP35119 H1.21 L1 (antibody, V domains shown)
# VH: QLQVQESGPGLVKPSETLSLTCTVSGGSISNSAFSWGWIRQPPGKGLEWIGSFYYGEKTYYNPSLKSRATISIDTSKSQFSLKLSSVTAADTAVYYCPRGPTMIRGVIDSWGQGTLVTVSS
# VL: EIVLTQSPATLSLSPGERATLSCRASQSVRSYLAWYQQKPGQAPRLLIYDASNRATGIPARFSGSGSGTDFTLTISSLEPEDFAVYYCQQRSNWPPTFGQGTKVEIK
# B11: XENP35126 H1.56 L1 (antibody, V domains shown)
# VH: QLQVQESGPGLVKPSETLSLTCTVSGGSISNSYFSWGWIRQPPGKGLEWIGSFYYGGKTYYNPSLKSRATISIDTSKSQFSLKLSSVTAADTAVYYCPRGPTMIRGVIDSWGQGTLVTVSS
# VL: EIVLTQSPATLSLSPGERATLSCRASQSVRSYLAWYQQKPGQAPRLLIYDASNRATGIPARFSGSGSGTDFTLTISSLEPEDFAVYYCQQRSNWPPTFGQGTKVEIK
# B12: XENP35127 H1.48 L1 (antibody, V domains shown)
# VH: QLQVQESGPGLVKPSETLSLTCTVSGGSISNSYFSWGWIRQPPGKGLEWIGSFDYGEKTYYNPSLKSRATISIDTSKSQFSLKLSSVTAADTAVYYCPRGPTMIRGVIDSWGQGTLVTVSS
# VL: EIVLTQSPATLSLSPGERATLSCRASQSVRSYLAWYQQKPGQAPRLLIYDASNRATGIPARFSGSGSGTDFTLTISSLEPEDFAVYYCQQRSNWPPTFGQGTKVEIK
# B13: XENP35128 H1.50 L1 (antibody, V domains shown)
# VH: QLQVQESGPGLVKPSETLSLTCTVSGGSISNSYFSWGWIRQPPGKGLEWIGSFKYGEKTYYNPSLKSRATISIDTSKSQFSLKLSSVTAADTAVYYCPRGPTMIRGVIDSWGQGTLVTVSS
# VL: EIVLTQSPATLSLSPGERATLSCRASQSVRSYLAWYQQKPGQAPRLLIYDASNRATGIPARFSGSGSGTDFTLTISSLEPEDFAVYYCQQRSNWPPTFGQGTKVEIK
# B14: XENP35124 H1.37 L1 (antibody, V domains shown)
# VH: QLQVQESGPGLVKPSETLSLTCTVSGGSISNSYFSWGWVRQPPGKGLEWIGSFYYGEKTYYNPSLKSRATISIDTSKSQFSLKLSSVTAADTAVYYCPRGPTMIRGVIDSWGQGTLVTVSS
# VL: EIVLTQSPATLSLSPGERATLSCRASQSVRSYLAWYQQKPGQAPRLLIYDASNRATGIPARFSGSGSGTDFTLTISSLEPEDFAVYYCQQRSNWPPTFGQGTKVEIK
# B15: XENP34305 H1 L1 (antibody, V domains shown)
# VH: QLQVQESGPGLVKPSETLSLTCTVSGGSISNSYFSWGWIRQPPGKGLEWIGSFYYGEKTYYNPSLKSRATISIDTSKSQFSLKLSSVTAADTAVYYCPRGPTMIRGVIDSWGQGTLVTVSS
# VL: EIVLTQSPATLSLSPGERATLSCRASQSVRSYLAWYQQKPGQAPRLLIYDASNRATGIPARFSGSGSGTDFTLTISSLEPEDFAVYYCQQRSNWPPTFGQGTKVEIK
# B16: XENP35122 H1.33 L1 (antibody, V domains shown)
# VH: QLQVQESGPGLVKPSETLSLTCTVSGGSISNSYFSWAWIRQPPGKGLEWIGSFYYGEKTYYNPSLKSRATISIDTSKSQFSLKLSSVTAADTAVYYCPRGPTMIRGVIDSWGQGTLVTVSS
# VL: EIVLTQSPATLSLSPGERATLSCRASQSVRSYLAWYQQKPGQAPRLLIYDASNRATGIPARFSGSGSGTDFTLTISSLEPEDFAVYYCQQRSNWPPTFGQGTKVEIK
# B17: XENP35120 H1.29 L1 (antibody, V domains shown)
# VH: QLQVQESGPGLVKPSETLSLTCTVSGGSISNSYFTWGWIRQPPGKGLEWIGSFYYGEKTYYNPSLKSRATISIDTSKSQFSLKLSSVTAADTAVYYCPRGPTMIRGVIDSWGQGTLVTVSS
# VL: EIVLTQSPATLSLSPGERATLSCRASQSVRSYLAWYQQKPGQAPRLLIYDASNRATGIPARFSGSGSGTDFTLTISSLEPEDFAVYYCQQRSNWPPTFGQGTKVEIK
# B18: XENP35123 H1.36 L1 (antibody, V domains shown)
# VH: QLQVQESGPGLVKPSETLSLTCTVSGGSISNSYFSWSWIRQPPGKGLEWIGSFYYGEKTYYNPSLKSRATISIDTSKSQFSLKLSSVTAADTAVYYCPRGPTMIRGVIDSWGQGTLVTVSS
# VL: EIVLTQSPATLSLSPGERATLSCRASQSVRSYLAWYQQKPGQAPRLLIYDASNRATGIPARFSGSGSGTDFTLTISSLEPEDFAVYYCQQRSNWPPTFGQGTKVEIK
# B19: TBRII-A_H1.30_L1 (antibody, V domains shown)
# VH: QLQVQESGPGLVKPSETLSLTCTVSGGSISNSYFYWGWIRQPPGKGLEWIGSFYYGEKTYYNPSLKSRATISIDTSKSQFSLKLSSVTAADTAVYYCPRGPTMIRGVIDSWGQGTLVTVSS
# VL: EIVLTQSPATLSLSPGERATLSCRASQSVRSYLAWYQQKPGQAPRLLIYDASNRATGIPARFSGSGSGTDFTLTISSLEPEDFAVYYCQQRSNWPPTFGQGTKVEIK
# B20: XENP37813 TBRII-A_H1.270_L1 (antibody, V domains shown)
# VH: QLQVQESGPGLVKPSETLSLTCTVSGGSISSSYFSWGWIRQPPGKGLEWIGSFNYGGKTYYNPSLKSRATISIDTSKNQFSLKLSSVTAADTAVYYCARGPTLIRGVIDSWGQGTLVTVSS
# VL: EIVLTQSPATLSLSPGERATLSCRASQSVRSYLAWYQQKPGQAPRLLIYDASNRATGIPARFSGSGSGTDFTLTISSLEPEDFAVYYCQQRSNWPPTFGQGTKVEIK
# B21: TBRII-A_H1.36_L1 (antibody, V domains shown)
# VH: QLQVQESGPGLVKPSETLSLTCTVSGGSISNSYFSWSWIRQPPGKGLEWIGSFYYGEKTYYNPSLKSRATISIDTSKSQFSLKLSSVTAADTAVYYCPRGPTMIRGVIDSWGQGTLVTVSS
# VL: EIVLTQSPATLSLSPGERATLSCRASQSVRSYLAWYQQKPGQAPRLLIYDASNRATGIPARFSGSGSGTDFTLTISSLEPEDFAVYYCQQRSNWPPTFGQGTKVEIK
# B22: XENP37818 TBRII-A_H1.190_L1.53 (antibody, V domains shown)
# VH: QLQVQESGPGLVKPSETLSLTCTVSGGSISSSYFSWGWIRQPPGKGLEWIGSFYYGGKTYYNPSLKSRATISIDTSKNQFSLKLSSVTAADTAVYYCARGPTTIRGVIDSWGQGTLVTVSS
# VL: EIVLTQSPATLSLSPGERATLSCRASQSVRSYLAWYQQKPGQAPRLLIYDASNRATGIPARFSGSGSGTDFTLTISSLEPEDFAVYYCQQRSNYPPTFGQGTKVEIK
# Biological target: T1, human TGFßRII (antigen of the Octet experiments) (human, UniProt P37173 23-166)
# Assay: BLI (Octet)
# T1 sequence (P37173 23-166): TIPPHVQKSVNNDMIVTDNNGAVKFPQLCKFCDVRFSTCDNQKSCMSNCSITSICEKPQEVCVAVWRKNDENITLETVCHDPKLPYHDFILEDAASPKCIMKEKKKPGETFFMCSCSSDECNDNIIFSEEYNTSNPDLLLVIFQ
row,Binder,Kd [nM]
1,B1,0.604
2,B2,0.311
3,B3,0.596
4,B4,0.666
5,B5,0.296
6,B6,0.642

# Biological target: T1, human TGFßRII (antigen of the Octet …)
# Assay: Octet
row,Binder,Kd [nM]
1,B7,4.02
2,B8,10.3
3,B9,23
4,B10,2.79
5,B11,3.36
6,B12,35
7,B13,31.4
8,B14,2.63
9,B15,2.92
10,B16,3.42
11,B17,4.6
12,B18,5.1

# Biological target: T1, human TGFßRII (antigen of the Octet …)
# Assay: not given
row,Binder,Kd [nM]
1,B19,14
2,B20,31.6
3,B21,3.5
4,B22,109
